According to patent CN108178799A (SHENZHEN INNOVA NANOBODI CO LTD, dated 2018):

B1: 纳米抗体VHH-CA125-4H10 (VHH)
VHH: ESGGGLVQPGGSLRLSCAASEFTLEHYAIGWFRQAPGKEREGVGCISSSQENTYVEDSAKGRFTISRDNVKNTVYLQMNSLKPEDTAVYYCAARRFGLCVISPGYFEVWGQGT
notes: Alpaca VHH expressed from pMES4 in E. coli BL21(DE3) periplasm; not shown: residues and tag from the pMES4 vector (protein purified on Ni-NTA / IMAC)
B2: 纳米抗体VHH-CA125-2H7 (VHH)
VHH: ESGGGLVQAGGSLRLSCERSDAPHSPYTMGWFRQAPGKDREFVATITWSGGTTLYADSVKGRFTISRGIAKNTAYLQMNTLKPEDTAVYYCAVGLGGGAYREDHQYDYWGQGT
notes: as for B1
B3: 纳米抗体VHH-CA125-4C1 (VHH)
VHH: ESGGGLVQAGGSLRLSCAASGNTFNINAMGWYRQAPGKQRELVATITSGGSTNYADSVKGRFTISRDNAKNTVFLQMNSLKPEDTAVYYCNAVQTRLPNSPDRYEYDYWGQGT
notes: as for B1

molecular target: T1, CA125抗原 (purified from ascites of ovarian cancer patients) (human (ascites of ovarian cancer …, UniProt Q8WXI7 1-14451)); experiment: SPR, Biacore T100, 1:1 binding fit
T1 construct: Natural shed antigen, heterogeneous fragments; also called CA125糖类抗原

Row | Kd | Binder
1 | 285 pM | B1
2 | 718 pM | B2
3 | 635 pM | B3
